Measurements from US20140256786.
Like-named read-outs stand apart in the source and are kept apart here.

Columns and labels:
[1] = test system: GST-dMiroΔTM fusion protein (amino acids 1-634 of the full-length dMiro protein, transmembrane domain deleted) [GST: P08515]
[2] = target: GST-dMiroΔTM fusion protein (amino acids 1-634 of the full-length dMiro protein, transmembrane domain deleted) [GST: P08515]; remark: listed apart in the source

mammalian PINK1 protein affinity purified from HEK293 cells by immunoprecipitation
in vitro kinase assay [1]: also failed to phosphorylate GST-dMiroΔTM in these assays

B1: 2xGST-dPINK1 fusion protein with GST fused at both the N- and C-terminus of dPINK1 (protein)
chain: KEDELEGVCWEIREAASRLQNAWNHDEISDTLDSKFTIDDLEIGPPIAKGCAAVVYAADFKKDVASDGASLHTDAQPQATPAFAPNSWSTHEMMSPLQNMSRFVHNFGGSVDNVFHYSQPSAASDFVGAQSREQDQRHHEQQQHQNQEQEQHQNQEPSSSAFNVTSPANSNINSSVDSYPLALKMMFNYDIQSNALSILRAMYKETVPARQRGMNEAADEWERLLQNQTVHLPRHPNIVCMFGFFCDEVRNFPDGHLLYPVAQPQRINPQGYGRNMSLYLLMKRYDHSLRGLLDSQDLSTRNRILLLAQMLEAVNHLSRHGVAHRDLKSDNVLIELQDDAAPVLVLSDFGCCLADKVHGLRLPYVSHDVDKGGNAALMAPEIFNTMPGPFAVLNYGKADLWACGALAYEIFGNRNPFYSSSGGMARERGEMTLSLRNSDYRQDQLPPMSDACPPLLQQLVYNILNPNPSKRVSPDIAANVVQLFLWAPSNWLKAGGMPNSPEILQWLLSLTTKIMCEGRPQMGAGLMPVASCGNRRAYVEYLLICSFLARARLRRIRGALNWIQNVVA
in vitro kinase assay (P32 autoradiography) [2]: failed to show phosphorylation of GST-dMiroΔTM

B2: Drosophila PINK1 protein affinity purified from HEK293 cells by immunoprecipitation (protein)
chain: MSVRLLTVRLIKHGRYILRSYCKRDIHANILDQNQLKTRSKRGFPLPSTAANVLRTTPQQAAKSVVNVVPRTINSPSGSPFNGSGSSPTSSSGIFRVGQHARKLFIDNILSRVTTTYSEDLRQRATRKLFFGDSAPFFALIGVSLASGSGVLSKEDELEGVCWEIREAASRLQNAWNHDEISDTLDSKFTIDDLEIGPPIAKGCAAVVYAADFKKDVASDGASLHTDAQPQATPAFAPNSWSTHEMMSPLQNMSRFVHNFGGSVDNVFHYSQPSAASDFVGAQSREQDQRHHEQQQHQNQEQEQHQNQEPSSSAFNVTSPANSNINSSVDSYPLALKMMFNYDIQSNALSILRAMYKETVPARQRGMNEAADEWERLLQNQTVHLPRHPNIVCMFGFFCDEVRNFPDGHLLYPVAQPQRINPQGYGRNMSLYLLMKRYDHSLRGLLDSQDLSTRNRILLLAQMLEAVNHLSRHGVAHRDLKSDNVLIELQDDAAPVLVLSDFGCCLADKVHGLRLPYVSHDVDKGGNAALMAPEIFNTMPGPFAVLNYGKADLWACGALAYEIFGNRNPFYSSSGGMARERGEMTLSLRNSDYRQDQLPPMSDACPPLLQQLVYNILNPNPSKRVSPDIAANVVQLFLWAPSNWLKAGGMPNSPEILQWLLSLTTKIMCEGRPQMGAGLMPVASCGNRRAYVEYLLICSFLARARLRRIRGALNWIQNVVA
in vitro kinase assay [2]: also failed to phosphorylate GST-dMiroΔTM in these assays
